Numbering of substitutions follows the chain as printed.
T1: SlNF-YA3b (MBP-6His fusion) (Solanum lycopersicum (tomato) cv. AC)
T1 chain: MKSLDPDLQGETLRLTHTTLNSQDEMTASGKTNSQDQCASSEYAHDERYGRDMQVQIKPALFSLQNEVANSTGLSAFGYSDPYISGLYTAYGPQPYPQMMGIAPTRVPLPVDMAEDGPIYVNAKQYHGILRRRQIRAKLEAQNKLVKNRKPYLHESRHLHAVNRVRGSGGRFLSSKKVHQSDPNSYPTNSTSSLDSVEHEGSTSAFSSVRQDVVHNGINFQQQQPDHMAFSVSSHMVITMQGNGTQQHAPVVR

B1: SFT-box1 (dsDNA)
DNA 1: GAATCAAGACACGATGATATTGGGACGCTTTGGGGTGTAT
DNA 2: ATACACCCCAAAGCGTCCCAATATCATCGTGTCTTGATTC
B2: SFT-box1-m (dsDNA)
DNA 1: B1 DNA 1 with A19T, G22T, G23T
DNA 2: B1 DNA 2 with C18A, C19A, T22A
B3: SFT-box6-m (dsDNA)
DNA 1: CCCTTCACCTTAGCATCAAAAAATAGGATTTACTACGAG
DNA 2: CTCGTAGTAAATCCTATTTTTTGATGCTAAGGTGAAGGG
B4: SFT-box6 (dsDNA)
DNA 1: B3 DNA 1 with A19C, A20C, A23T
DNA 2: B3 DNA 2 with T17A, T20G, T21G
B5: SFT-box5-m (dsDNA)
DNA 1: ATGTTTTATCATAAAAATAAAAAATGTTTTTAATATTAATC
DNA 2: GATTAATATTAAAAACATTTTTTATTTTTATGATAAAACAT
B6: SFT-box5 (dsDNA)
DNA 1: B5 DNA 1 with A20T, A21T, A22G, A23G
DNA 2: B5 DNA 2 with T19C, T20C, T21A, T22A
B7: SFT-box4-m (dsDNA)
DNA 1: TTAAATTATGTTTTCTTGGGGGGGGTTTCATTCCTTATTTA
DNA 2: TAAATAAGGAATGAAACCCCCCCCAAGAAAACATAATTTAA
B8: SFT-box4 (dsDNA)
DNA 1: B7 DNA 1 with G19A, G20T, G21T
DNA 2: B7 DNA 2 with C21A, C22A, C23T
B9: SFT-box3 (dsDNA)
DNA 1: GTTAGATTGAAGTTAGTAATTGGTTATCCCACCGATGGATT
DNA 2: AATCCATCGGTGGGATAACCAATTACTAACTTCAATCTAAC
B10: SFT-box3-m (dsDNA)
DNA 1: B9 DNA 1 with A19T, G22T, G23T
DNA 2: B9 DNA 2 with C19A, C20A, T23A
B11: SFT-box2 (dsDNA)
DNA 1: TAGGGGTAAGGGTAAAATATTGGAAAAATCATTTAAATAT
DNA 2: ATATTTAAATGATTTTTCCAATATTTTACCCTTACCCCTA
B12: SFT-box2-m (dsDNA)
DNA 1: B11 DNA 1 with T20A, T21A, G22A, G23A
DNA 2: B11 DNA 2 with C18T, C19T, A20T, A21T
B13: SFT-box7 (dsDNA)
DNA 1: AGTTAGATCAGGCCGGCCCAATAGACCTAATCCATAGTG
DNA 2: CACTATGGATTAGGTCTATTGGGCCGGCCTGATCTAACT
B14: SFT-box7-m (dsDNA)
DNA 1: AGTTAGATCAGGCCGGCGGGGGAGACCTAATCCATAGTG
DNA 2: CACTATGGATTAGGTCTCCCCCGCCGGCCTGATCTAACT

Experiments:
[1] = molecular target: T1, SlNF-YA3b (MBP-6His fusion); test: EMSA; EMSA on non-denaturing gels, FAM probes; buffer, salt, pH and temperature not stated; details: protein: recombinant; tags: MBP; 6xHis; label: FAM on forward strand (probe); blunt
[2] = molecular target: T1, SlNF-YA3b (MBP-6His fusion); test: competition; 10- and 30-fold excess vs FAM box 1; EMSA on non-denaturing gels, FAM probes; buffer, salt, pH and temperature not stated; details: protein: recombinant; tags: MBP; 6xHis; blunt
[3] = molecular target: T1, SlNF-YA3b (MBP-6His fusion); test: competition; 10- and 30-fold excess vs FAM box 6; EMSA on non-denaturing gels, FAM probes; buffer, salt, pH and temperature not stated; details: protein: recombinant; tags: MBP; 6xHis; blunt
[4] = molecular target: T1, SlNF-YA3b (MBP-6His fusion); test: competition; 10- and 30-fold excess vs FAM box 5; EMSA on non-denaturing gels, FAM probes; buffer, salt, pH and temperature not stated; details: protein: recombinant; tags: MBP; 6xHis; blunt
[5] = molecular target: T1, SlNF-YA3b (MBP-6His fusion); test: competition; 10- and 30-fold excess vs FAM box 4; EMSA on non-denaturing gels, FAM probes; buffer, salt, pH and temperature not stated; details: protein: recombinant; tags: MBP; 6xHis; blunt
[6] = molecular target: T1, SlNF-YA3b (MBP-6His fusion); test: competition; 10- and 30-fold excess vs FAM box 3; EMSA on non-denaturing gels, FAM probes; buffer, salt, pH and temperature not stated; details: protein: recombinant; tags: MBP; 6xHis; blunt
[7] = molecular target: T1, SlNF-YA3b (MBP-6His fusion); test: competition; 10- and 30-fold excess vs FAM box 2; EMSA on non-denaturing gels, FAM probes; buffer, salt, pH and temperature not stated; details: protein: recombinant; tags: MBP; 6xHis; blunt
[8] = molecular target: T1, SlNF-YA3b (MBP-6His fusion); test: competition; 10- and 30-fold excess vs FAM box 7; EMSA on non-denaturing gels, FAM probes; buffer, salt, pH and temperature not stated; details: protein: recombinant; tags: MBP; 6xHis; blunt

Row | Binder | binding result [1] | also measured
1 | B1 | binds | –
2 | B2 | – | binding result [2]: no binding
3 | B3 | – | binding result [3]: no binding
4 | B4 | binds | –
5 | B5 | – | binding result [4]: no binding
6 | B6 | binds | –
7 | B7 | – | binding result [5]: no binding
8 | B8 | binds | –
9 | B9 | binds | –
10 | B10 | – | binding result [6]: no binding
11 | B11 | binds | –
12 | B12 | – | binding result [7]: no binding
13 | B13 | binds | –
14 | B14 | – | binding result [8]: no binding

From paper PMC11116822, “Nuclear factor Y-A3b binds to the SINGLE FLOWER TRUSS promoter and regulates flowering time in tomato”
